Values quoted from earlier work as cited in PMC3617488 (European journal of nuclear medicine and molecular imaging, 2011).

What was measured:
[1] = human

| Substance | Half-life of the parent peptide [1] [h] | Plasma half-life (comparison with exendin-4) |
| --- | --- | --- |
| exendin-4: subcutaneously administered peptide drug used in the treatment of type 2 diabetes | 9.57 |  |
| AC3174: exendin-4 analog which contains a leucine for methionine substitution |  | shorter plasma half-life |
